From patent US20210380703A1 (RIGEL PHARMACEUTICALS, published 2021)
Where a chain is given by its changes, count along the chain named. Blank lines part the entries; values can stand above or below the binder they belong to.

How the values were obtained:
[1] = molecular target: T1, biotinylated goat anti-human kappa light chain; assay: ELISA, positive control
T1 construct: positive control of the ELISA
Method in brief: (§1)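 Monoclonal antibodies were first applied to human or mouse ACVR2A, alongside biotinylated goat anti-human kappa light chain (positive control) and human Fc (negative control); binding was then determined by ELISA.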

human ACVR2A [2] = molecular target: T2, human ACVR2A (human, UniProt P27037 20-135, limits assumed); assay: ELISA
T2 construct: also called activin receptor, type II A
Method in brief: as §1
T2 sequence (P27037 20-135 limits assumed): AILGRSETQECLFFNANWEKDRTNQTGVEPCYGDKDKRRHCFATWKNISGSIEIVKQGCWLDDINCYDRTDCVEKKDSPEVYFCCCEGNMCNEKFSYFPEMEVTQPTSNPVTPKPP

mouse ACVR2A [3] = molecular target: mouse ACVR2A (mouse, UniProt P27038 20-135, limits assumed); assay: ELISA
Method in brief: as §1
Target sequence in this assay (P27038 20-135 limits assumed): as the sequence (P27037 20-135 limits assumed) above, with K20R, V73I counted along it

[4] = molecular target: T3, biotinylated goat anti-human kappa light chain; assay: ELISA, positive control; remark: listed apart in the source
T3 construct: positive control of the ELISA
Method in brief: as §1

mouse ACVR2A [5] = molecular target: T4, mouse ACVR2A (mouse, UniProt P27038 20-135, limits assumed); assay: ELISA
T4 construct: coated antigen of the initial ELISA
Method in brief: as §1
T4 sequence (P27038 20-135 limits assumed): as the sequence (P27037 20-135 limits assumed) above, with K20R, V73I counted along it

human ACVR2A [6] = molecular target: T5, human ACVR2A (human, UniProt P27037 20-135, limits assumed); assay: ELISA
T5 construct: coated antigen of the initial ELISA; also called activin receptor, type II A
Method in brief: as §1
T5 sequence (P27037 20-135 limits assumed): as the sequence (P27037 20-135 limits assumed) above
Further: test concentration or dose not given here.

B1: 374_A10 (antibody, V domains shown)
VH: EVQLLESGGGLVQPGGSLRLSCAASGFTFSSYGMHWVRQAPGKGLEWVSGINYNGGYTSYADSVKGRFTISRDNSKNTLYLQMNSLRAEDTAVYYCARAATWHDTHLDYWGQGTLVTVSS
VL: DIQMTQSPSSLSASVGDRVTITCRASQSILSYVNWYQQKPGKAPKLLIYAATSRASGVPSRFSGSGSGTDFTLTISSLQPEDFATYYCQQSYDTPLTFGGGTKVEIK
notes: Group II
optical density [1]: 3 OD | optical density (human ACVR2A [2]): 3.56 OD | optical density (mouse ACVR2A [3]): 3.59 OD

B2: 368_C02 (antibody, V domains shown)
VH: B1 VH with S30D, S31D, G33S, H35N, S49A, G50N, T58K, S59G, A99G, T101N
VL: B1 VL with L30S, S31T, R54L, D93S
notes: Group III
optical density [4]: 3.51 OD | optical density (mouse ACVR2A [5]): 1.49 OD | optical density (human ACVR2A [6]): 1.38 OD

B6: 374_H11 (antibody, V domains shown)
VH: B1 VH with G33S, H35N, A99G, T101N, H106A
VL: B1 VL with L30I, L47V, R54L, A55H, D93S, T94N
notes: Group III
optical density [4]: 3.15 OD | optical density (mouse ACVR2A [5]): 3.29 OD | optical density (human ACVR2A [6]): 3.27 OD

B8: 375_E03 (antibody, V domains shown)
VH: B1 VH with S31D, G33S, H35N, S49A, G50N, S59G, A99G, T101N
VL: B1 VL with S31T, V33L, L47V, R54L, T94N
notes: Group III
optical density [4]: 3.18 OD | optical density (mouse ACVR2A [5]): 3.64 OD | optical density (human ACVR2A [6]): 3.57 OD

B9: 376_D07 (antibody, V domains shown)
VH: B1 VH with S30D, G33S, H35N, A99G, T101N
VL: not shown
notes: Group III
optical density [4]: 3.44 OD | optical density (mouse ACVR2A [5]): 3.44 OD | optical density (human ACVR2A [6]): 3.38 OD

B10: 375_A01 (antibody, V domains shown)
VH: B1 VH with S30D, G33S, H35N, S49A, A99G, T101N, H106A
VL: B1 VL with V33L, L47V, D93N
notes: Group III
optical density [4]: 2.91 OD | optical density (mouse ACVR2A [5]): 3.68 OD | optical density (human ACVR2A [6]): 3.28 OD

B13: 374_H01 (antibody, V domains shown)
VH: B1 VH with S30D, G33S, H35N, S49A, A99G, T101N
VL: B1 VL with V33L, L47V, R54L, D93E, T94N
notes: Group III
optical density [4]: 3.07 OD | optical density (mouse ACVR2A [5]): 3.26 OD | optical density (human ACVR2A [6]): 3.08 OD

B14: 376_B03 (antibody, V domains shown)
VH: B1 VH with G33S, H35N, S49A, G55S, T58K, A99G, T101N, H106A
VL: B1 VL with L47V, A51V, A55H, T94S
notes: Group III
optical density [4]: 3.52 OD | optical density (mouse ACVR2A [5]): 3.67 OD | optical density (human ACVR2A [6]): 3.68 OD

B16: 375_A08 (antibody, V domains shown)
VH: B1 VH with G33S, H35N, S49A, S59G, A99G, T101N, H106A
VL: B1 VL with L30V, S31T, V33L, D93E, T94S
notes: Group III
optical density [4]: 3.14 OD | optical density (mouse ACVR2A [5]): 3.69 OD | optical density (human ACVR2A [6]): 3.68 OD

B17: 375_F07 (antibody, V domains shown)
VH: B1 VH with S31D, G33S, H35N, G50N, S59G, A99G, T101N, H106A
VL: B1 VL with V33L, T94S
notes: Group III
optical density [4]: 3.22 OD | optical density (mouse ACVR2A [5]): 3.71 OD | optical density (human ACVR2A [6]): 3.67 OD

More lines, now with the values ahead:

optical density [4]: 3.18 OD | optical density (mouse ACVR2A [5]): 3.02 OD | optical density (human ACVR2A [6]): 2.77 OD
B3: 376_F01 (antibody, V domains shown)
VH: B1 VH with S31D, G33S, H35N, S49A, T58K, A99G, T101N, H106A
VL: not shown
notes: Group III

optical density [1]: 3.45 OD | optical density (human ACVR2A [2]): 2.34 OD | optical density (mouse ACVR2A [3]): 2.23 OD
B4: 365_A05 (antibody, V domains shown)
VH: B1 VH with G50S
VL: not shown
notes: Group II

optical density [4]: 3.17 OD | optical density (mouse ACVR2A [5]): 3.33 OD | optical density (human ACVR2A [6]): 3.35 OD
B5: 375_H05 (antibody, V domains shown)
VH: B1 VH with G33S, H35N, G50N, S59G, A99G, T101N, H106A
VL: B1 VL
notes: Group III

optical density [4]: 3.46 OD | optical density (mouse ACVR2A [5]): 3.67 OD | optical density (human ACVR2A [6]): 3.6 OD
B7: 376_B10 (antibody, V domains shown)
VH: B1 VH with S31D, G33S, H35N, S49A, T58K, S59G, A99G, T101N, H106A
VL: B1 VL with V33L, L47V, R54L, D93S
notes: Group III

optical density [4]: 3.21 OD | optical density (mouse ACVR2A [5]): 3.67 OD | optical density (human ACVR2A [6]): 3.68 OD
B11: 375_C04 (antibody, V domains shown)
VH: B1 VH with S31D, G33S, H35N, S49A, A99G, T101N, H106A
VL: B1 VL with S31T, V33L, L47V, D93E, T94S
notes: Group III

optical density [4]: 3.23 OD | optical density (mouse ACVR2A [5]): 3.65 OD | optical density (human ACVR2A [6]): 3.61 OD
B12: 376_A03 (antibody, V domains shown)
VH: B1 VH with H35N, S49A, S59G, A99G, T101N, H106A
VL: B1 VL with S31T, V33L, D93S
notes: Group III

optical density [4]: 3.28 OD | optical density (mouse ACVR2A [5]): 3.34 OD | optical density (human ACVR2A [6]): 3.65 OD
B15: 375_B12 (antibody, V domains shown)
VH: B1 VH with S30D, G33S, H35N, S49A, T58K, A99G, T101N, H106A
VL: B1 VL with L30V, S31T, V33L
notes: Group III
